Data on one variant can be found in IntAct's records for PubMed 11713520.

B1: Auxin-responsive protein IAA17 (Arabidopsis thaliana (Mouse-ear cress)), P93830 (parent)
chain: MMGSVELNLRETELCLGLPGGDTVAPVTGNKRGFSETVDLKLNLNNEPANKEGSTTHDVVTFDSKEKSACPKDPAKPPAKAQVVGWPPVRSYRKNVMVSCQKSSGGPEAAAFVKVSMDGAPYLRKIDLRMYKSYDELSNALSNMFSSFTMGKHGGEEGMIDFMNERKLMDLVNSWDYVPSYEDKDGDWMLVGDVPWPMFVDTCKRLRLMKGSDAIGLAPRAMEKCKSRA
partner: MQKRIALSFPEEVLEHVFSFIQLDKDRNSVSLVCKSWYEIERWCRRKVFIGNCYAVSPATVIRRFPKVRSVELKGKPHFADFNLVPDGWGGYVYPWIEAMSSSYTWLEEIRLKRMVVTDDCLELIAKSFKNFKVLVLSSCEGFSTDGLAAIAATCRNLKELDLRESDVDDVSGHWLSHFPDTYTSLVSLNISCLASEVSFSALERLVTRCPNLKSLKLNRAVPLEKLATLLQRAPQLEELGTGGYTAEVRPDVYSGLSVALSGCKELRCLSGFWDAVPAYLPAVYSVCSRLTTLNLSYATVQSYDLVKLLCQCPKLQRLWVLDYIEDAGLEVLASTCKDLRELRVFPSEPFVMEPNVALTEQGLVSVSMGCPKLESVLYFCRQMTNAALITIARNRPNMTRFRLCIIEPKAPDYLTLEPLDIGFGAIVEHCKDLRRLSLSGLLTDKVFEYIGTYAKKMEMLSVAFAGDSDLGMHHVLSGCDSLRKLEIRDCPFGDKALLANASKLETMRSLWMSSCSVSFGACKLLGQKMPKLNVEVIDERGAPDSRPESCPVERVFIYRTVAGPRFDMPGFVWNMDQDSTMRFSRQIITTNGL

Variants of B1 are the subject of the experiment. The conditions noted are these: with tir1_arath TIR1, Q570C0.
Turning to MMGSVELNLRETELCLGLPGGDTVAPVTGNKRGFSETVDLKLNLNNEPANKEGSTTHDVVTFDSKEKSACPKDPAKPPAKAQVVGWPLVRSYRKNVMVSCQKSSGGPEAAAFVKVSMDGAPYLRKIDLRMYKSYDELSNALSNMFSSFTMGKHGGEEGMIDFMNERKLMDLVNSWDYVPSYEDKDGDWMLVGDVPWPMFVDTCKRLRLMKGSDAIGLAPRAMEKCKSRA [P88L], the “effect of a mutation on the interaction” value is reported as “decreasing interaction”.
